Here are results for two molecules from US20260210971A1 (Pfizer, published 2026).

Where a chain is given by its changes, count along the chain named. Read-outs that look alike come from different tables or passages of the source.

Assay [1] deals with T1, recombinant soluble cynomolgus monkey TL1A (cynomolgus monkey, UniProt O95150 72-251 (human entry)).
T1 construct: also called cyno rsTL1A; cyno TL1A
T1 chain: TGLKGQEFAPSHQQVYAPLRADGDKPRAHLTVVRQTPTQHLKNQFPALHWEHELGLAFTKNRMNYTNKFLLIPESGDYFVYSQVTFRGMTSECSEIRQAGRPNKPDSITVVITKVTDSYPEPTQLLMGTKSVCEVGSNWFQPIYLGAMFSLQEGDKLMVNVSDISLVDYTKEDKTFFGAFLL
The assay can be described thus: SPR, IgG captured on anti-hIgG, TL1A injected. In general terms: In SPR one partner is held on a chip, and binding of the other changes the refractive index at the surface.
Source text: (§1) The antibodies were captured via directly immobilized anti-human IgG (GE Healthcare) onto a carboxymethylated dextran sensor chip surface (CM5) using a Biacore T100 or T200 instrument. Anti-human IgG was immobilized through amine coupling to densities of approximately 4,000-13,000 response units (RU). […] At the end of each cycle, the entire anti-hIgG surface was regenerated by a 30-second pulse of 3M MgCl₂ followed by two consecutive 15-second pulses of PBS-NET. […] All injections were performed at 25° C. at a collection rate of 10 Hz. All sensorgrams were double referenced by using both a control surface and buffer injections. Rate constants were determined by fitting the data to a 1:1 model in Biacore T100, T200 evaluation software v1.0, or BIAevaluation software v4.1.1 and the equation KD=Kd/kₐ.
(§2) At the highest cytokine concentrations, the dissociation phase was sometimes extended to 60 minutes to achieve at least a 5% decrease in binding signal.

In assay [2] the target is T1, recombinant soluble cynomolgus monkey …. The assay is described as follows: SPR, IgG captured on anti-hIgG, TL1A injected.
Source text: To characterize the binding kinetics of the anti-TL1A antibodies to TL1A by surface plasmon resonance, each anti-TL1A antibody was captured via directly immobilized anti-human IgG (GE Healthcare) onto a carboxymethylated dextran sensor chip surface (CM5) using a Biacore T100 or T200 instrument. Anti-human IgG was immobilized through amine coupling to densities of approximately 4,000-13,000 response units (RU). […] At the end of each cycle, the entire anti-human IgG (hIgG) surface was regenerated by a 30-second pulse of 3M MgCl₂ followed by two consecutive 15-second pulses of PBS-NET. All injections were performed at 25° C. at a collection rate of 10 Hz. All sensorgrams were double referenced by using both a control surface and buffer injections. Rate constants were determined by fitting the data to a 1:1 model in Biacore T100, T200 evaluation software v1.0, or BIAevaluation software v4.1.1 and the equation KD=kd/kₐ.
The anti-TL1A antibodies were captured onto immobilized anti-human Fc on a CM5 sensor chip on a Biacore T100 instrument. […] Rate constants shown in the table were determined by fitting to a 1:1 Langmuir binding model in BiaEvaluation v4.1.1 (fit lines shown in red). Data shown are the average and standard deviation of at least 3 independent surfaces between 2 experiments.
Assay [3] has as its target T2, recombinant soluble rat TL1A (rat, UniProt Q8K3Y7 76-252).
T2 construct: also called rat rsTL1A
T2 sequence: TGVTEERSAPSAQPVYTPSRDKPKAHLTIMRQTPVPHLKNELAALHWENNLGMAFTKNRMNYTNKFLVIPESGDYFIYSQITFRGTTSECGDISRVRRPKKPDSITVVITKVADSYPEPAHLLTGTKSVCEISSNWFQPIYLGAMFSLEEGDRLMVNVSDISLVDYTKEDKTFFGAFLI
The assay is described as follows: SPR, IgG captured on anti-hIgG, TL1A injected.

The target of assay [4] is T3, recombinant soluble murine TL1A (mouse, UniProt Q5UBV8 75-252).
T3 construct: also called murine rsTL1A; mouse TL1A
T3 chain: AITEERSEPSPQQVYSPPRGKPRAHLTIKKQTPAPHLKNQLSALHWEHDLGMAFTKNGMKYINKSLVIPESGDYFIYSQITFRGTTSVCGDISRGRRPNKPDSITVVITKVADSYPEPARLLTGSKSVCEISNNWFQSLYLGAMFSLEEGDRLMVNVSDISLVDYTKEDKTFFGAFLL
The assay can be described thus: SPR, IgG captured on anti-hIgG, TL1A injected.

In assay [5] the target is T3, recombinant soluble murine TL1A. The assay can be described thus: KinExA, equilibrium in solution. Background: Kinetic exclusion samples the free partner from a solution-phase mixture.
Procedure: (§3) This assay involves pre-incubating antibody: antigen mixtures in solution long enough to reach equilibrium before measuring the level of unbound antibody using a solid phase component. […] Beads were blocked for 1 hour with PBS plus 10 mg/ml bovine serum albumin (bovine serum albumin, Sigma) at room temperature before being diluted up to a total of 27 ml in PBS. […] For each titration series, a buffer sample and a sample of antibody alone were included. Each antibody: TL1A mixture was tumbled at room temperature for at least six hours to reach equilibrium and then each mixture was injected over the solid phase of TL1A-coated beads in the instrument flow cell. […] Beads were replenished between each sample. Binding signals of detected free antibody were converted to percentage of free, unbound antibody as measured by the antibody only sample and plotted versus each concentration of TL1A. For each antibody, the KD and ABC controlled curves were fit simultaneously using n-Curve Analysis software v3.1.4 to fit the curves to the ‘affinity, unknown ligand’ model and measure an equilibrium KD.
(§4) Solution-based kinetic exclusion assays (KinExA) were carried out as an orthogonal technique to measure equilibrium KD values.
In assay [6] the target is T1, recombinant soluble cynomolgus monkey …. The assay is described as follows: KinExA, equilibrium in solution.
Procedure: as §3, §4
The target in assay [7] is T4, endogenous TL1A of stimulated human peripheral blood (human, UniProt O95150 72-251, limits assumed).
T4 sequence (looked up): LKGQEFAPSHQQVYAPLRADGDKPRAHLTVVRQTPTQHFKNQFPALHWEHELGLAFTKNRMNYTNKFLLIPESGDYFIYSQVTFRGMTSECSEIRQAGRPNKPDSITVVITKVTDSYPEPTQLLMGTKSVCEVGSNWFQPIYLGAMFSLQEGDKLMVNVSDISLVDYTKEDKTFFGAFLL
The assay is described as follows: cell-based or functional assay.

The target in assay [8] is T3, recombinant soluble murine TL1A. The assay can be described thus: SPR, IgG captured on anti-hIgG, TL1A injected.
In assay [9] the target is T1, recombinant soluble cynomolgus monkey …. The assay can be described thus: SPR, IgG captured on anti-hIgG, TL1A injected.
Assay [10] concerns the target T5, recombinant soluble rabbit TL1A (rabbit).
T5 construct: also called rabbit rsTL1A
T5 chain: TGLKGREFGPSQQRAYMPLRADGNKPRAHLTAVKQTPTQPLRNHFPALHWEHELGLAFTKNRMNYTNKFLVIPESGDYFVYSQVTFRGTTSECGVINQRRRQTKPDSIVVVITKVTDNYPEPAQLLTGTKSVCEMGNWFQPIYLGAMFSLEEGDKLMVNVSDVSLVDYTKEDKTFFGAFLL
The assay can be described thus: SPR, IgG captured on anti-hIgG, TL1A injected.
Source text: as §1, §2

The target in assay [11] is T6, recombinant soluble human TL1A (human, UniProt O95150 71-251).
T6 construct: Homotrimer, expressed in HEK293 and purified over HitrapNTA; no tag is described; Used biotinylated in the HTRF assay and in flow cytometry; also called rsTL1A; hTL1A
T6 sequence: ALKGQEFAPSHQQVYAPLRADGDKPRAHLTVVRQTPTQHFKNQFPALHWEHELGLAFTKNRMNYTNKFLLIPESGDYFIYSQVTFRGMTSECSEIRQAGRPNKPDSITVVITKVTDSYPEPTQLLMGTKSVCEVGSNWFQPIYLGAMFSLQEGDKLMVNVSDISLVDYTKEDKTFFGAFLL
The assay is described as follows: binding test of the 1D1 point mutants, method not named.

B1: anti-TL1A antibody 1D1 (antibody, human IgG1, kappa, V domains shown)
VH: QVQLVQSGAEVKKPGASVKVSCKASGYSFTYYGISWVRQAPGQGLEWMGWISTYNGNTNYARMLQGRVTMTTDTSTRTAYMELRSLRSDDTAVYYCARENYYGSGSYRGGMDVWGQGTTVTVSS
VL: EIVLTQSPATLSLSPGERATLSCRASQSVSSYLAWYQQKPGQAPRLLIYDASNRATGIPARFSGSGSGTDFTLTISSLEPEDFAVYYCQQRSNWPWTFGQGTKVEIKR
notes: Human IgG1 with effector-null triple mutation (hIgG1-3m), kappa; The first binning was done with the antibodies from the hybridoma screen; also called 1D1 parental; Parental 1D1
As to B1, the Kd was found to be 6.69 nM in assay [1]; 7 nM in [2]; 8.14 nM in [3]; 7.29 nM in [4]; 0.383 nM in assay [5]; 0.384 nM in [6]. Also, the results for the Kd in [8], in assay [9] and in assay [10] were 1.32 nM, 1.67 nM and 1.31 nM, respectively. The koff came to 0.0041 s⁻¹ in assay [1]; 0.0041 s⁻¹ in [2]; 0.0134 s⁻¹ in assay [3]; 0.0036 s⁻¹ in assay [4]; 0.00079 s⁻¹ in assay [10]. Moreover, the kon in assay [1] came to 600000 M⁻¹ s⁻¹; in assay [2] it was 600000 M⁻¹ s⁻¹; in [3], 1.71e+06 M⁻¹ s⁻¹; in [4] it was 490000 M⁻¹ s⁻¹; in assay [10], 610000 M⁻¹ s⁻¹. In addition, the t1/2 in assay [1] worked out at 2.82 min; in [3] it was 0.867 min; in assay [4], 3.25 min; in assay [10], 14.6 min. Besides, the “HWB Assay, average IC50” value in assay [7] worked out at 0.248 nM.

B2: 1D1 with heavy chain mutation Y31H (antibody, V domains shown)
VH: B1 VH with Y31H
VL: EIVLTQSPATLSLSPGERATLSCRASQSVSSYLAWYQQKPGQAPRLLIYDASNRATGIPARFSGSGSGTDFTLTISSLEPEDFAVYYCQQRSNWPWTFGQGTKVEIK
notes: Point mutant of 1D1 CDR-H1
B2: the Kd in assay [11] turned out to be 12.7 nM.

By Kd is commonly meant the equilibrium constant for the complex coming apart. One may read the koff as a measure of how fast the partners let go of each other. For orientation: kon means the rate constant with which the complex forms.
